Experimental data published in patent publication US20240200044.

How the values were obtained:
[1] = test system: ATM-L TALEN L3-1 (in cells) A252T,Q505K,Q745P (full TALE construct numbering) (synthetic construct); test: cell_activity; details: U2OS
[2] = test system: ATM-L TALEN L3-2 (in cells) A252T,L338S,Q505K,Q745P (full TALE construct numbering) (synthetic construct); test: cell_activity; details: U2OS
[3] = test system: ATM-L TALEN L1-2 (A252T) A252T (full TALE construct numbering) (synthetic construct); test: cleavage_in_vitro; details: canonical 6.3% in same experiment
[4] = test system: canonical ATM-R TALEN (synthetic construct); test: cleavage_in_vitro; details: 12 nM, 90 min, paired with canonical ATM-L

Sequence	activity [1] [% indels]	activity [2] [% indels]	also measured
TAGATTGAAATGCTGTTT (double strand) [OffA23 left half-site]	< 0.001	< 0.001	
TGAATAGGAAATATATTT (double strand) [OffA1 left half-site]	< 0.001	0.002	
TGAATTGGGATGCTGTTT (double strand) [ATM left half-site on-target]	7.04		activity ([2]; HEK293 23.26%): 7.97 % indels
GGAAATGGGATACTGAGT (double strand) [OffA17 left half-site]	< 0.001		activity ([2]; HEK293 0.025%): < 0.001 % indels; activity [3]: 0.3 % cleavage
TTTATTTTACTGTCTTTA (double strand) [ATM right half-site on-target (sense strand)]			activity [4]: 31.5 % cleavage
TGAATTGAGAGAAGCATT (double strand) [OffA11 left half-site]			activity ([1]; control 0.001%, not significant): 0.002 % indels; activity ([2]; not significant, HEK293 <0.001%): 0.002 % indels
